Measured values from patent US20070162998A1.

Target: papain (cysteine protease) (UniProt P00784)
Experiment: cell-based or functional assay

Sequence of UniProt P00784 (P00784 134-345 limits assumed): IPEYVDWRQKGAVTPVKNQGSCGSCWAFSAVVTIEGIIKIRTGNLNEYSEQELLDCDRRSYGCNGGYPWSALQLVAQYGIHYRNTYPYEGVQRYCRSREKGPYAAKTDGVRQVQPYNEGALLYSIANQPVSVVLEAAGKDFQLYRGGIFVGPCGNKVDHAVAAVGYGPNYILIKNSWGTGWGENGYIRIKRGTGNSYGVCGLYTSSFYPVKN

residual protease activity of papain on 0.1% gelatin/SDS-PAGE: 100
Substance: recombinant CeCPI protein (taro cysteine protease inhibitor, tarocystatin)
